The experiment concerns the target mixture of human tenascin and human fibronectin matrix proteins (human). The experiment can be described thus: SPR; BIAcore X, CM4 chip with an amine-coupled mixture of human tenascin and human fibronectin (4100 RU); samples injected at 1 µM in HBS (10 mM HEPES, 150 mM NaCl, 3 mM EDTA, 0.05% P20, pH 7.4), 5 µl/minute, 25°C, 1 minute, then 1 minute dissociation; reference cell subtracted.

As to “avidin (from UniProt P02701 25-152) (natural protein)”, the response (RU) worked out at 30 RU.
With AvidinOX (from UniProt P02701 25-152), the response (RU) is over 2000 RU.

Source of the values: publication PMC3118792.
